The values that follow come from article PMC2855763.

Assay [1] has as its target VFP (vivid Verde fluorescent protein) (Cyphastrea microphthalma). Nature of the assay: SEC. (In general: Size exclusion chromatography separates by hydrodynamic size, large species first.)
In assay [2] the target is dVFP (VFP T160A) (Cyphastrea microphthalma). Nature of the assay: SEC.

Usually stoichiometry N stands for the number of molecules, sites or subunits per partner or assembly.

As to “VFP (vivid Verde fluorescent protein) (natural protein)”, the stoichiometry N in assay [1] came to 2.
Turning to dVFP (VFP T160A) (natural protein), in assay [2], the stoichiometry N was 2.
